Reference: patent EP4703377A1

How the values were obtained:
[1] = target: Recombinant HA antigen H11, A/northern shoveler/Netherlands/18/1999 (H11N9) (influenza A virus A/northern shoveler/Netherlands/18/1999 (H11N9)); experiment: ELISA on plate-coated recombinant HA; AUC of the absorbance (490 nm) curve
[2] = target: Recombinant HA antigen H8, A/mallard/Sweden/24/2002 (H8N4) (influenza A virus A/mallard/Sweden/24/2002 (H8N4)); experiment: as above
[3] = target: Recombinant HA antigen H2, A/Japan/305/57 (H2N2) (influenza A virus A/Japan/305/57 (H2N2)) (UniProt P03451); experiment: as above
[4] = target: Recombinant HA antigen H18, A/flat-faced bat/Peru/033/2010 (H18N11) (influenza A virus A/flat-faced bat/Peru/033/2010 (H18N11)); experiment: as above
[5] = target: Recombinant HA antigen A/Narita/1/2009 (H1N1pdm09) (influenza A virus A/Narita/1/2009 (H1N1pdm09)); experiment: as above
[6] = target: Recombinant HA antigen H13, A/black-headed gull/Sweden/1/1999 (H13N6) (influenza A virus A/black-headed gull/Sweden/1/1999 (H13N6)); experiment: as above
[7] = target: Recombinant HA antigen H12, A/mallard/Interior Alaska/7MP0167/2007 (H12N5) (influenza A virus A/mallard/Interior Alaska/7MP0167/2007 (H12N5)); experiment: as above
[8] = target: Recombinant HA antigen H4, A/duck/Czechoslovakia/1956 (H4N6) (influenza A virus A/duck/Czechoslovakia/1956 (H4N6)) (UniProt P19696); experiment: as above
[9] = target: Recombinant HA antigen H10, A/mallard/Interior Alaska/10BM01929R0/2010 (H10N7) (influenza A virus A/mallard/Interior Alaska/10BM01929R0/2010 (H10N7)); experiment: as above
[10] = target: Recombinant HA antigen H9, A/guinea fowl/Hong Kong/WF10/99 (H9N2) (influenza A virus A/guinea fowl/Hong Kong/WF10/99 (H9N2)); experiment: as above
[11] = target: Recombinant HA antigen H15, A/shearwater/Australia/2576/1979 (H15N9) (influenza A virus A/shearwater/Australia/2576/1979 (H15N9)); experiment: as above
[12] = target: Recombinant HA antigen H5, A/Laos/JP127/2004 (H5N1) (influenza A virus A/Laos/JP127/2004 (H5N1)); experiment: as above
[13] = target: Recombinant HA antigen H14, A/mallard/Astrakhan/263/1982 (H14N5) (influenza A virus A/mallard/Astrakhan/263/1982 (H14N5)); experiment: as above
[14] = target: Recombinant HA antigen H6, A/mallard/Sweden/81/2002 (H6N1) (influenza A virus A/mallard/Sweden/81/2002 (H6N1)); experiment: as above
[15] = target: Recombinant HA antigen H17, A/little yellow-shouldered bat/Guatemala/060/2010 (H17N10) (influenza A virus A/little yellow-shouldered bat/Guatemala/060/2010 (H17N10)); experiment: as above
[16] = target: Recombinant HA antigen A/Anhui/1/2013 (H7N9) (influenza A virus A/Anhui/1/2013 (H7N9)); experiment: as above
[17] = target: Recombinant HA antigen H16, A/black-headed gull/Sweden/5/99 (H16N3) (influenza A virus A/black-headed gull/Sweden/5/99 (H16N3)); experiment: as above
[18] = target: Recombinant HA antigen H1, A/South Carolina/1/1918 (H1N1) (influenza A virus A/South Carolina/1/1918 (H1N1)) (UniProt Q9WFX3); experiment: as above
H3 LAH [19] = target: H3 LAH
H3 LAH [20] = experiment: ELISA on H3 LAH at 15.625 ng/mL clone 5
[21] = target: Recombinant HA antigen H3, A/Hong Kong/1/68 (H3N2) (influenza A virus A/Hong Kong/1/68 (H3N2)) (UniProt Q91MA7); experiment: ELISA on plate-coated recombinant HA; AUC of the absorbance (490 nm) curve

| Binder | AUC value [1] | AUC value [2] | AUC value [3] | AUC value [4] | AUC value [5] | AUC value [6] | AUC value [7] | AUC value [8] | AUC value [9] | AUC value [10] | AUC value [11] | AUC value [12] | AUC value [13] | AUC value [14] | AUC value [15] | AUC value [16] | AUC value [17] | AUC value [18] | other results |
| --- | --- | --- | --- | --- | --- | --- | --- | --- | --- | --- | --- | --- | --- | --- | --- | --- | --- | --- | --- |
| Clone 7 (antibody, V domains shown) VH: QVQLQESGPGLVKPSETLSLTCSVSGGPLTSSTYFWGWIRQPPGKGLEWLGSINFRGTTDNAPSLKSRVTLSIDTSTHQFSLRLSSVTAKDTAVYYCARHTQRLTVFTVVHGFDLWGQGTVVSVSS VL: QSALTQPASVSGSPGQSITISCTGATGDIGVSDFVSWYQQHPGKAPKLIIFDVTNRPSGVSNRFSGSKSVNTASLTISGLQAEDEADYYCCLYSTRSRDWEFGGGTKLTVL | 300 | 3320 | 3300 | 3160 | 3350 | 1560 | 3340 | 3250 | 3220 | 3240 | 3270 | 3290 | 3320 | 3220 | 3350 | 3260 | 3200 | 3320 |  |
| Clone 5 (antibody, V domains shown) VH: QVQLQESGPGLVKPSETLSLTCTVSGVSMNSNHWSWIRQAPGKELEWIGYIYYTGKTFYNPSLQSRVTVSLDTSKNQFYLKLTSVTAADTAVYYCARRAMASVQRGILRVFDLWGQGKMVTVSS VL: DIQMTQSPSTLSASVGDRVTITCRASQIIDKWLAWYQHKPGKAPKLLIYEASNLETGVPSRFSGSGSGTEFTLTISSLQPDDFATYFCQQYKSYLPYTFGQGTKLEIK |  |  |  |  |  |  |  |  |  |  |  |  |  |  |  |  |  |  | titer (H3 LAH [19]): 0.92 AU/mL; absorbance (H3 LAH [20]): 0.877 absorbance |
| Clone 6 (antibody, V domains shown) VH: QVQLEQSGAEVKKPGSSVKVSCKASGPMFSRSAFSWVRQAPGQGLEWMGRIIPTVDLKNYAQKFQGRVTFTADKSTATSYMELRSLKSEDTAVYYCARMGSGSSYYGMDVWGLGTTVTVSS VL: DIVMTQSPLSLPVIPGEPASISCRSSQSLLQSNGNNYLDWYLQKPGQSPQLLIYLGSNRASGVPDRFSGSGSGTDFTLTISRVEAEDVGVYYCLQARQSSVLTFGGGTKLEIK | 757 | 474 | 3310 | 3240 | 2480 | 117 | 98.5 | 3310 | 3330 | 632 | 3360 | 3240 | 3360 | 2800 | 3370 | 3320 | 290 | 3360 | AUC value [21]: 3300 |
